Columns and labels:
Format in all cases: biochemical
[1] = Luminescence activity assay of purified Gaussia luciferase mutants on coelenterazine; parameters: key to Activity of mutant relative to wild-type Gaussia luciferase without the signal peptide: ratio of mutant luminescence intensity to wild-type Gaussia luciferase; conditions: for Activity of mutant relative to wild-type Gaussia luciferase without the signal peptide: Substrate CTZ (Table 16)
Procedure, shortened: (§1)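 Readout: luminescence intensity, as ratio to signal-peptide-free wild-type enzyme. Enzyme 1 μg/mL, substrate 100 μM stock, 10 μL + 90 μL; buffer 50 mM Tris-HCl pH 8.0, 100 mM NaCl, 0.1% Tween-20.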

[2] = Luminescence activity assay of purified Gaussia luciferase mutants on coelenterazine derivative ZS2; parameters: key to Activity of mutant relative to wild-type Gaussia luciferase without the signal peptide: ratio of mutant luminescence intensity to wild-type Gaussia luciferase; conditions: for Activity of mutant relative to wild-type Gaussia luciferase without the signal peptide: Substrate ZS2 (Table 16)
Procedure, shortened: as §1

[3] = Substrate specificity test of combinatorial mutants: activity on coelenterazine derivative ZS26
Procedure: In this Example, the protein concentration was determined with a BCA quantitative kit (Thermo Scientific™ Pierce™ BCA Protein Assay Kit) accurately. The purified luciferase obtained in Example 5 was diluted with diluent (50 mM Tris-HCl, pH 8.0, 100 mM NaCl, 0.1% (v/v) Tween-20) to 1 μg/mL. The diluted luciferase, taken for 10 μL, was moved into a black 96-well plate, then added with 90 μL of the substrates coelenterazine, fluoro-coelenterazine or coelenterazine derivative ZS2 (purchased from Biolab) which was diluted into 100 μM with the same diluent, and the luminescence intensity of the plate was read with a self-luminescence module of a microplate reader. The mutation site of the mutant, the measured luminescence intensity, the ratio of luminescence intensities of the advantageous mutants to the wild-type Gaussia luciferase without the signal peptide having the sequence shown in SEQ ID NO: 3 are shown in Table 15. The results of catalytic activity assay of the advantageous mutants relative to the wild-type Gaussia luciferase without the signal peptide having the sequence shown in SEQ ID NO: 3 on substrate coelenterazine are shown in FIG. 6. […] The results of catalytic activity assay of the advantageous mutants relative to the wild-type Gaussia luciferase without the signal peptide having the sequence shown in SEQ ID NO: 3 on substrate fluoro-coelenterazine are shown in FIG. 7.
The new mutant library constructed in Example 7 was screened and tested for substrate specificity. Expression and purification schemes were the same as that in Example 5, and the activity assay scheme was the same as that in Example 6. The respective catalytic activities of combinatorial mutants on coelenterazine, fluoro-coelenterazine or coelenterazine derivative ZS2, and coelenterazine derivative ZS26 (purchased from BIOLAB) were assayed, and comparisons among the substrate specificities of the combinatorial mutants were based on the ratios of catalytic activities on two corresponding substrates.

[4] = Luminescence activity assay of purified Gaussia luciferase mutants on fluoro-coelenterazine; parameters: key to Activity of mutant relative to wild-type Gaussia luciferase without the signal peptide: ratio of mutant luminescence intensity to wild-type Gaussia luciferase; conditions: for Activity of mutant relative to wild-type Gaussia luciferase without the signal peptide: Substrate f-CTZ (Table 16)
Procedure, shortened: as §1

B1: mutant E1-G12: Gaussia luciferase combinatorial mutant encoded by SEQ ID NO: 42 (protein)
chain: MKPTENNEDLNILDIAKNFIETDLDADRGKLPGKKLPLEVLKEMEANARIAGCTRGCLICLSKIKCTLKMKKFIPGRCHTYEGDKSTGQGGIGPAIVDIPEIPGFKDMEPMEQFIAQVDLCEDCTTGCLKGLANVQCSDLLKKWLPQRCATFASKIQGQVDKIKGAGGD
measured value, CTZ ([1]; purified combinatorial mutant, substrate coelenterazine (CTZ)): 689624
measured value, ZS-2 ([2]; purified combinatorial mutant, substrate coelenterazine derivative ZS2): 401271
ratios of catalytic activities on ZS2 relative to ZS26 ([2]; substrate specificity, FIG. 10, in words): significantly improved
measured value, ZS-26 ([3]; purified combinatorial mutant, substrate coelenterazine derivative ZS26): 31521
ratio of catalytic activities, ZS2/ZS26 ([3]; substrate specificity, ZS2 relative to ZS26): 12.73
ratio of catalytic activities, CTZ/ZS26 ([3]; substrate specificity, coelenterazine relative to ZS26): 21.87
ratio of catalytic activities, f-CTZ/ZS26 ([3]; substrate specificity, fluoro-coelenterazine relative to ZS26): 3.01
measured value, f-CTZ ([4]; purified combinatorial mutant, substrate fluoro-coelenterazine (f-CTZ)): 94900

B2: F26C N27D A30D A32V S33R A36T: Gaussia luciferase mutant (protein)
chain: MGVKVLFALICIAVAEAKPTENNEDCDIVDVVRNFTTTDLDADRGKLPGKKLPLEVLKEMEANARKAGCTRGCLICLSHIKCTPKMKKFIPGRCHTYEGDKESAQGGIGEAIVDIPEIPGFKDLEPMEQFIAQVDLCVDCTTGCLKGLANVQCSDLLKKWLPQRCATFASKIQGQVDKIKGAGGD
modifications: SIGNAL (1)..(17)
notes: Gaussia luciferase mutant
Activity of mutant relative to wild-type Gaussia luciferase without the signal peptide [1]: 0.126
Activity of mutant relative to wild-type Gaussia luciferase without the signal peptide [2]: 0.166
Activity of mutant relative to wild-type Gaussia luciferase without the signal peptide [4]: 0.130

B3: F26I N27D V29A A30D V31I S33K A36N T37K L40P: Gaussia luciferase mutant (protein)
chain: MGVKVLFALICIAVAEAKPTENNEDIDIADIAKNFNKTDPDADRGKLPGKKLPLEVLKEMEANARKAGCTRGCLICLSHIKCTPKMKKFIPGRCHTYEGDKESAQGGIGEAIVDIPEIPGFKDLEPMEQFIAQVDLCVDCTTGCLKGLANVQCSDLLKKWLPQRCATFASKIQGQVDKIKGAGGD
modifications: SIGNAL (1)..(17)
notes: Gaussia luciferase mutant
Activity of mutant relative to wild-type Gaussia luciferase without the signal peptide [1]: 0.016
Activity of mutant relative to wild-type Gaussia luciferase without the signal peptide [2]: 0.026
Activity of mutant relative to wild-type Gaussia luciferase without the signal peptide [4]: 0.080

B4: F26C N27D V29L A32V A36I T37A L40I: Gaussia luciferase mutant (protein)
chain: MGVKVLFALICIAVAEAKPTENNEDCDILAVVSNFIATDIDADRGKLPGKKLPLEVLKEMEANARKAGCTRGCLICLSHIKCTPKMKKFIPGRCHTYEGDKESAQGGIGEAIVDIPEIPGFKDLEPMEQFIAQVDLCVDCTTGCLKGLANVQCSDLLKKWLPQRCATFASKIQGQVDKIKGAGGD
modifications: SIGNAL (1)..(17)
notes: Gaussia luciferase mutant
Activity of mutant relative to wild-type Gaussia luciferase without the signal peptide [1]: 0.203
Activity of mutant relative to wild-type Gaussia luciferase without the signal peptide [2]: 0.166
Activity of mutant relative to wild-type Gaussia luciferase without the signal peptide [4]: 0.141

B5: F26L N27H V29C V31I S33V A36Q T37S L40G: Gaussia luciferase mutant (protein)
chain: MGVKVLFALICIAVAEAKPTENNEDLHICAIAVNFQSTDGDADRGKLPGKKLPLEVLKEMEANARKAGCTRGCLICLSHIKCTPKMKKFIPGRCHTYEGDKESAQGGIGEAIVDIPEIPGFKDLEPMEQFIAQVDLCVDCTTGCLKGLANVQCSDLLKKWLPQRCATFASKIQGQVDKIKGAGGD
modifications: SIGNAL (1)..(17)
notes: Gaussia luciferase mutant
Activity of mutant relative to wild-type Gaussia luciferase without the signal peptide [1]: 0.066
Activity of mutant relative to wild-type Gaussia luciferase without the signal peptide [2]: 0.067
Activity of mutant relative to wild-type Gaussia luciferase without the signal peptide [4]: 0.095

B6: F26I V29A A30D A32V S33K T37E L40A: Gaussia luciferase mutant (protein)
chain: MGVKVLFALICIAVAEAKPTENNEDINIADVVKNFAETDADADRGKLPGKKLPLEVLKEMEANARKAGCTRGCLICLSHIKCTPKMKKFIPGRCHTYEGDKESAQGGIGEAIVDIPEIPGFKDLEPMEQFIAQVDLCVDCTTGCLKGLANVQCSDLLKKWLPQRCATFASKIQGQVDKIKGAGGD
modifications: SIGNAL (1)..(17)
notes: Gaussia luciferase mutant
Activity of mutant relative to wild-type Gaussia luciferase without the signal peptide [1]: 1.470
Activity of mutant relative to wild-type Gaussia luciferase without the signal peptide [2]: 1.231
Activity of mutant relative to wild-type Gaussia luciferase without the signal peptide [4]: 0.583

B7: F26C N27D A30V V31L A32G S33I A36V T37M L40G: Gaussia luciferase mutant (protein)
chain: MGVKVLFALICIAVAEAKPTENNEDCDIVVLGINFVMTDGDADRGKLPGKKLPLEVLKEMEANARKAGCTRGCLICLSHIKCTPKMKKFIPGRCHTYEGDKESAQGGIGEAIVDIPEIPGFKDLEPMEQFIAQVDLCVDCTTGCLKGLANVQCSDLLKKWLPQRCATFASKIQGQVDKIKGAGGD
modifications: SIGNAL (1)..(17)
notes: Gaussia luciferase mutant
Activity of mutant relative to wild-type Gaussia luciferase without the signal peptide [1]: 0.054
Activity of mutant relative to wild-type Gaussia luciferase without the signal peptide [2]: 0.086
Activity of mutant relative to wild-type Gaussia luciferase without the signal peptide [4]: 0.065

B8: F26G N27D V29L A30V V31I A32G S33D A36W T37S: Gaussia luciferase mutant (protein)
chain: MGVKVLFALICIAVAEAKPTENNEDGDILVIGDNFWSTDLDADRGKLPGKKLPLEVLKEMEANARKAGCTRGCLICLSHIKCTPKMKKFIPGRCHTYEGDKESAQGGIGEAIVDIPEIPGFKDLEPMEQFIAQVDLCVDCTTGCLKGLANVQCSDLLKKWLPQRCATFASKIQGQVDKIKGAGGD
modifications: SIGNAL (1)..(17)
notes: Gaussia luciferase mutant
Activity of mutant relative to wild-type Gaussia luciferase without the signal peptide [1]: 0.038
Activity of mutant relative to wild-type Gaussia luciferase without the signal peptide [2]: 0.027
Activity of mutant relative to wild-type Gaussia luciferase without the signal peptide [4]: 0.040

B9: F26G N27Y A30G V31L A32G S33L A36Y T37V L40E: Gaussia luciferase mutant (protein)
chain: MGVKVLFALICIAVAEAKPTENNEDGYIVGLGLNFYVTDEDADRGKLPGKKLPLEVLKEMEANARKAGCTRGCLICLSHIKCTPKMKKFIPGRCHTYEGDKESAQGGIGEAIVDIPEIPGFKDLEPMEQFIAQVDLCVDCTTGCLKGLANVQCSDLLKKWLPQRCATFASKIQGQVDKIKGAGGD
modifications: SIGNAL (1)..(17)
notes: Gaussia luciferase mutant
Activity of mutant relative to wild-type Gaussia luciferase without the signal peptide [1]: 0.031
Activity of mutant relative to wild-type Gaussia luciferase without the signal peptide [2]: 0.027
Activity of mutant relative to wild-type Gaussia luciferase without the signal peptide [4]: 0.025

B10: F26L V29A V31I A32D S33R A36N T37E LA0P: Gaussia luciferase mutant (protein)
chain: MGVKVLFALICIAVAEAKPTENNEDLNIAAIDRNFNETDLDADRGKLPGKKLPLEVLKEMEANARKAGCTRGCLICLSHIKCTPKMKKFIPGRCHTYEGDKESAQGGIGEAIVDIPEIPGFKDLEPMEQFIAQVDLCVDCTTGCLKGLANVQCSDLLKKWLPQRCATFASKIQGQVDKIKGAGGD
Activity of mutant relative to wild-type Gaussia luciferase without the signal peptide [1]: 0.406
Activity of mutant relative to wild-type Gaussia luciferase without the signal peptide [2]: 0.385
Activity of mutant relative to wild-type Gaussia luciferase without the signal peptide [4]: 0.402

B11: F26G N27Y V29C A30V V31L S33G A36R T37A L40A: Gaussia luciferase mutant (protein)
chain: MGVKVLFALICIAVAEAKPTENNEDGYICVLAGNFRATDADADRGKLPGKKLPLEVLKEMEANARKAGCTRGCLICLSHIKCTPKMKKFIPGRCHTYEGDKESAQGGIGEAIVDIPEIPGFKDLEPMEQFIAQVDLCVDCTTGCLKGLANVQCSDLLKKWLPQRCATFASKIQGQVDKIKGAGGD
modifications: SIGNAL (1)..(17)
notes: Gaussia luciferase mutant
Activity of mutant relative to wild-type Gaussia luciferase without the signal peptide [1]: 0.088
Activity of mutant relative to wild-type Gaussia luciferase without the signal peptide [2]: 0.080
Activity of mutant relative to wild-type Gaussia luciferase without the signal peptide [4]: 0.104

B12: F26N V29S A30D S33D A36T T37A L40G: Gaussia luciferase mutant (protein)
chain: MGVKVLFALICIAVAEAKPTENNEDNNISDVADNFTATDGDADRGKLPGKKLPLEVLKEMEANARKAGCTRGCLICLSHIKCTPKMKKFIPGRCHTYEGDKESAQGGIGEAIVDIPEIPGFKDLEPMEQFIAQVDLCVDCTTGCLKGLANVQCSDLLKKWLPQRCATFASKIQGQVDKIKGAGGD
modifications: SIGNAL (1)..(17)
notes: Gaussia luciferase mutant
Activity of mutant relative to wild-type Gaussia luciferase without the signal peptide [1]: 0.098
Activity of mutant relative to wild-type Gaussia luciferase without the signal peptide [2]: 0.106
Activity of mutant relative to wild-type Gaussia luciferase without the signal peptide [4]: 0.121

From US20250066745A1, “MUTANTS AND USE THEREOF” (BGI SHENZHEN, priority 2021, published 2025)
